Data on 6 molecules can be found in patent US9969998B2, “Compositions of adenosine deaminase-2 (ADA2), variants thereof and methods of using same” (Halozyme, Inc., priority 2014, dated 2018).

The data set is described as follows: Kinetic assessment of adenosine deaminase activity (ammonia assay, Michaelis-Menten). The conditions noted are these: [E] = 8.5 nM; for kcat: kcat=Vmax/0.0085/60. It is filed as biochemical. As for the experimental part:
Adenosine deaminase activity was determined by the measurement of ammonia released from adenosine when broken down to inosine. Ammonia was measured using a commercially available Ammonia Assay kit (Cat. No. AA0100, Sigma-Aldrich, St. Louis, Mo.). The kit contains dry reagents containing α-ketoglutaric acid and NADPH, which were reconstituted with 5 mL water prior to use in the assay. Ammonia reacts with α-ketogluaric acid (KGA) and reduced nicotinamide adenine dinucleotide phosphate (NADPH) in the presence of L-glutamate dehydrogenase (GDH).
Kinetics parameters of rHuADA2 WT and variants were compared using this assay at different adenosine concentrations at pH 7.6 and 6.5. Adenosine concentrations ranging from 20 μM to 20 mM were used. Sub-molar concentration of adenosine stock was prepared in 1N NaOH.
For the enzymatic assays at pH 7.6, adenosine was serially diluted with 100 mM sodium acetate (NaOAc), pH 4.9. A 2× reaction mixture was prepared, containing reconstituted ammonia assay reagent (containing about 4 mM α-ketoglutarate and about 300 μM NADPH), WT rHuADA2 or variants at 1 μg/mL (17 nM) and glutamate dehydrogenase (GDH, 1:50 dilution). 85 μL of adenosine was added to 85 μL 2× mixture in duplicate in a UV-transparent half-area plate. The change in absorbance (ΔA) at 340 nm over time at room temperature was monitored.
For the enzymatic assay at pH 6.5, adenosine was serially diluted with 200 mM piperazine-N,N′-bis(2-ethanesulfonic acid) (PIPES), pH 6.5. A 2× reaction mixture in 200 mM PIPES, pH 6.5 was prepared, containing 4 mM α-ketoglutarate, 300 μM NADPH, 1 μg/mL (17 nM) rHuADA2 or variants and 50 U/mL GDH (Cat No. G2626, Sigma-Aldrich). The enzymatic reaction was initiated by adding equal volume of adenosine to the 2× mixture in a UV-transparent half-area plate as described above, and the change in absorbance (AA) at 340 nm over time at room temperature was monitored.
Adenosine deaminase activity in mU/mL (μM/min equivalent) was calculated using the following formula: 1 mU/mL=−(−ΔA/min×Tv)/(Sv×ϵ×1) • where Tv=total volume (170 μL), Sv=sample volume (85 μL), ϵ=6.22×10^−3 μM^−1 cm^−1, 1=1 cm.
The activity data were fitted with non-linear regression of Michaelis-Menten equation using Graphpad Prism software to obtain Km and Vmax. Other kinetics parameters such as kcat and kcat/Km were also determined.

B1: R222Q/K374E/R23E: ADA2 combination variant SEQ ID NO:266 (protein)
chain: IDETRAHLLLKEKMMRLGGELVLNTKEELANERLMTLKIAEMKEAMRTLIFPPSMHFFQAKHLIERSQVFNILRMMPKGAALHLHDIGIVTMDWLVRNVTYRPHCHICFTPRGIMQFRFAHPTPRPSEKCSKWILLEDYRKRVQNVTEFDDSLLRNFTLVTQHPEVIYTNQNVVWSKFETIFFTISGLIHYAPVFRDYVFRSMQEFYEDNVLYMEIRAQLLPVYELSGEHHDEEWSVKTYQEVAQKFVETHPEFIGIKIIYSDHRSKDVAVIAESIRMAMGLRIKFPTVVAGFDLVGHEDTGHSLHDYKEALMIPAKDGVKLPYFFHAGETDWQGTSIDRNILDALMLNTTRIGHGFALSKHPAVRTYSWEKDIPIEVCPISNQVLKLVSDLRNHPVATLMATGHPMVISSDDPAMFGAKGLSYDFYEVFMGIGGMKADLRTLKQLAMNSIKYSTLLESEKNTFMEIWKKRWDKFIADVATK
modifications: human ADA2 R219Q/K371E/R20E, mature numbering
Consider B1, for which, for the setting “pH 6.5”, the Km (in general, the substrate concentration at which the rate is half of its maximum) is 860 µM; the Vmax (usually the rate approached at saturating substrate) turned out to be 54.48 µM/min; the kcat – broadly, the number of substrate molecules converted per active site and unit of time at saturation – is 106.82 s⁻¹. For the setting “pH 7.6”, the Michaelis-Menten constant (Km) stood at 1920 µM, the Vmax stood at 78.42 µM/min and the kcat was 153.76 s⁻¹.

B2: R222Q/S265N/K374E/R23E: ADA2 combination variant SEQ ID NO:271 (protein)
chain: IDETRAHLLLKEKMMRLGGELVLNTKEELANERLMTLKIAEMKEAMRTLIFPPSMHFFQAKHLIERSQVFNILRMMPKGAALHLHDIGIVTMDWLVRNVTYRPHCHICFTPRGIMQFRFAHPTPRPSEKCSKWILLEDYRKRVQNVTEFDDSLLRNFTLVTQHPEVIYTNQNVVWSKFETIFFTISGLIHYAPVFRDYVFRSMQEFYEDNVLYMEIRAQLLPVYELSGEHHDEEWSVKTYQEVAQKFVETHPEFIGIKIIYNDHRSKDVAVIAESIRMAMGLRIKFPTVVAGFDLVGHEDTGHSLHDYKEALMIPAKDGVKLPYFFHAGETDWQGTSIDRNILDALMLNTTRIGHGFALSKHPAVRTYSWEKDIPIEVCPISNQVLKLVSDLRNHPVATLMATGHPMVISSDDPAMFGAKGLSYDFYEVFMGIGGMKADLRTLKQLAMNSIKYSTLLESEKNTFMEIWKKRWDKFIADVATK
modifications: human ADA2 R219Q/S262N/K371E/R20E, mature numbering
Regarding B2, under “pH 6.5”, the Km is 770 µM, the Vmax amounted to 54.82 µM/min and the turnover number (kcat) worked out at 107.49 s⁻¹. Further, under “pH 7.6”, the Km amounted to 1240 µM, the Vmax was 90.91 µM/min and the kcat came to 178.25 s⁻¹.

B3: R222Q/S265N/K374E: ADA2 combination variant SEQ ID NO:268 (protein)
chain: IDETRAHLLLKEKMMRLGGRLVLNTKEELANERLMTLKIAEMKEAMRTLIFPPSMHFFQAKHLIERSQVFNILRMMPKGAALHLHDIGIVTMDWLVRNVTYRPHCHICFTPRGIMQFRFAHPTPRPSEKCSKWILLEDYRKRVQNVTEFDDSLLRNFTLVTQHPEVIYTNQNVVWSKFETIFFTISGLIHYAPVFRDYVFRSMQEFYEDNVLYMEIRAQLLPVYELSGEHHDEEWSVKTYQEVAQKFVETHPEFIGIKIIYNDHRSKDVAVIAESIRMAMGLRIKFPTVVAGFDLVGHEDTGHSLHDYKEALMIPAKDGVKLPYFFHAGETDWQGTSIDRNILDALMLNTTRIGHGFALSKHPAVRTYSWEKDIPIEVCPISNQVLKLVSDLRNHPVATLMATGHPMVISSDDPAMFGAKGLSYDFYEVFMGIGGMKADLRTLKQLAMNSIKYSTLLESEKNTFMEIWKKRWDKFIADVATK
modifications: human ADA2 R219Q/S262N/K371E, mature numbering
For the molecule B3, for the setting “pH 6.5”, the Km stood at 800 µM, the maximal velocity (Vmax) was found to be 45.53 µM/min and the kcat was 89.27 s⁻¹. Where the note is “pH 7.6”, the Km was found to be 1350 µM, the Vmax amounted to 65.43 µM/min and the kcat turned out to be 128.29 s⁻¹.

B4: R222Q/K374D/R23E: ADA2 combination variant SEQ ID NO:267 (protein)
chain: IDETRAHLLLKEKMMRLGGELVLNTKEELANERLMTLKIAEMKEAMRTLIFPPSMHFFQAKHLIERSQVFNILRMMPKGAALHLHDIGIVTMDWLVRNVTYRPHCHICFTPRGIMQFRFAHPTPRPSEKCSKWILLEDYRKRVQNVTEFDDSLLRNFTLVTQHPEVIYTNQNVVWSKFETIFFTISGLIHYAPVFRDYVFRSMQEFYEDNVLYMEIRAQLLPVYELSGEHHDEEWSVKTYQEVAQKFVETHPEFIGIKIIYSDHRSKDVAVIAESIRMAMGLRIKFPTVVAGFDLVGHEDTGHSLHDYKEALMIPAKDGVKLPYFFHAGETDWQGTSIDRNILDALMLNTTRIGHGFALSKHPAVRTYSWDKDIPIEVCPISNQVLKLVSDLRNHPVATLMATGHPMVISSDDPAMFGAKGLSYDFYEVFMGIGGMKADLRTLKQLAMNSIKYSTLLESEKNTFMEIWKKRWDKFIADVATK
modifications: human ADA2 R219Q/K371D/R20E, mature numbering
For B4, where the note is “pH 6.5”, the Km stood at 670 µM, the Vmax turned out to be 60.68 µM/min and the kcat came to 118.98 s⁻¹. Also, where the note is “pH 7.6”, the Km turned out to be 1340 µM, the Vmax amounted to 88.43 µM/min and the kcat worked out at 173.39 s⁻¹.

B5: R222Q/S265N/R23E: ADA2 combination variant SEQ ID NO:270 (protein)
chain: IDETRAHLLLKEKMMRLGGELVLNTKEELANERLMTLKIAEMKEAMRTLIFPPSMHFFQAKHLIERSQVFNILRMMPKGAALHLHDIGIVTMDWLVRNVTYRPHCHICFTPRGIMQFRFAHPTPRPSEKCSKWILLEDYRKRVQNVTEFDDSLLRNFTLVTQHPEVIYTNQNVVWSKFETIFFTISGLIHYAPVFRDYVFRSMQEFYEDNVLYMEIRAQLLPVYELSGEHHDEEWSVKTYQEVAQKFVETHPEFIGIKIIYNDHRSKDVAVIAESIRMAMGLRIKFPTVVAGFDLVGHEDTGHSLHDYKEALMIPAKDGVKLPYFFHAGETDWQGTSIDRNILDALMLNTTRIGHGFALSKHPAVRTYSWKKDIPIEVCPISNQVLKLVSDLRNHPVATLMATGHPMVISSDDPAMFGAKGLSYDFYEVFMGIGGMKADLRTLKQLAMNSIKYSTLLESEKNTFMEIWKKRWDKFIADVATK
modifications: human ADA2 R219Q/S262N/R20E, mature numbering
Regarding B5, where the note is “pH 6.5”, the Km worked out at 1010 µM, the maximal velocity (Vmax) is 40.59 µM/min and the kcat was 79.59 s⁻¹. Moreover, under “pH 7.6”, the Km was 1290 µM, the Vmax amounted to 67.24 µM/min and the kcat is 131.84 s⁻¹.

B6: R222Q/S265N/K374D: ADA2 combination variant SEQ ID NO:269 (protein)
chain: IDETRAHLLLKEKMMRLGGRLVLNTKEELANERLMTLKIAEMKEAMRTLIFPPSMHFFQAKHLIERSQVFNILRMMPKGAALHLHDIGIVTMDWLVRNVTYRPHCHICFTPRGIMQFRFAHPTPRPSEKCSKWILLEDYRKRVQNVTEFDDSLLRNFTLVTQHPEVIYTNQNVVWSKFETIFFTISGLIHYAPVFRDYVFRSMQEFYEDNVLYMEIRAQLLPVYELSGEHHDEEWSVKTYQEVAQKFVETHPEFIGIKIIYNDHRSKDVAVIAESIRMAMGLRIKFPTVVAGFDLVGHEDTGHSLHDYKEALMIPAKDGVKLPYFFHAGETDWQGTSIDRNILDALMLNTTRIGHGFALSKHPAVRTYSWDKDIPIEVCPISNQVLKLVSDLRNHPVATLMATGHPMVISSDDPAMFGAKGLSYDFYEVFMGIGGMKADLRTLKQLAMNSIKYSTLLESEKNTFMEIWKKRWDKFIADVATK
modifications: human ADA2 R219Q/S262N/K371D, mature numbering
Consider B6, for which, where the note is “pH 6.5”, the Km amounted to 760 µM, the Vmax stood at 50.89 µM/min and the kcat is 99.78 s⁻¹. Besides, for the setting “pH 7.6”, the Km is 1190 µM, the Vmax stood at 70.96 µM/min and the catalytic constant (kcat) was determined as 139.14 s⁻¹.
